Measurements published in publication PMC12416549 (2024).
Substitutions are numbered along the chain they refer to. In names and notes the source's numbering stands.

T1: TNFR1 (Homo sapiens, UniProt P19438)
T1 chain: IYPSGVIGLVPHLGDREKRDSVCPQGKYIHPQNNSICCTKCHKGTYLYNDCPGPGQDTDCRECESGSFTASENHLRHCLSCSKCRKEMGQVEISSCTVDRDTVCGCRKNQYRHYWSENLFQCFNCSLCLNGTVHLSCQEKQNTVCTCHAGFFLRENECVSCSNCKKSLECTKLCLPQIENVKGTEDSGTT

B1: K107V (designed binder)
chain: SMEEEVEKAAKEYEKKKKEAIEKHLEKLKAKDKEAAERFLKELEEAAKEYAKDEAKTMSEEEAKRRAKKYKEKVLLSELSEEEQKEIKEAEEKLVRTILKYVEEAAV
B2: E34F (designed binder)
chain: B1 chain with E34F, V107K
B3: E62D (designed binder)
chain: B1 chain with E62D, V107K
B4: K23Q (designed binder)
chain: B1 chain with K23Q, V107K
B5: K64F (designed binder)
chain: B1 chain with K64F, V107K
B6: E14T (designed binder)
chain: B1 chain with E14T, V107K
B7: Q84K (designed binder)
chain: B1 chain with Q84K, V107K
B8: S1R (designed binder)
chain: B1 chain with S1R, V107K
B9: A46F (designed binder)
chain: B1 chain with A46F, V107K
B10: R66M (designed binder)
chain: B1 chain with R66M, V107K
B11: A35R (designed binder)
chain: B1 chain with A35R, V107K
B12: K15M (designed binder)
chain: B1 chain with K15M, V107K
B13: K69Y (designed binder)
chain: B1 chain with K69Y, V107K
B14: E3H (designed binder)
chain: B1 chain with E3H, V107K
B15: E86N (designed binder)
chain: B1 chain with E86N, V107K
B16: V102Q (designed binder)
chain: B1 chain with V102Q, V107K
B17: E91A (designed binder)
chain: B1 chain with E91A, V107K
B18: E81R (designed binder)
chain: B1 chain with E81R, V107K
B19: E81T (designed binder)
chain: B1 chain with E81T, V107K
B20: E61Q (designed binder)
chain: B1 chain with E61Q, V107K
B21: Y50I (designed binder)
chain: B1 chain with Y50I, V107K
B22: Y70W (designed binder)
chain: B1 chain with Y70W, V107K
B23: L40P (designed binder)
chain: B1 chain with L40P, V107K
B24: E81K (designed binder)
chain: B1 chain with E81K, V107K
B25: E4V (designed binder)
chain: B1 chain with E4V, V107K
B26: R66C (designed binder)
chain: B1 chain with R66C, V107K
B27: K29V (designed binder)
chain: B1 chain with K29V, V107K
B28: A106H (designed binder)
chain: B1 chain with A106H, V107K
B29: K23N (designed binder)
chain: B1 chain with K23N, V107K
B30: K8S (designed binder)
chain: B1 chain with K8S, V107K
B31: S80Q (designed binder)
chain: B1 chain with S80Q, V107K
B32: K73N (designed binder)
chain: B1 chain with K73N, V107K
B33: E12W (designed binder)
chain: B1 chain with E12W, V107K
B34: E83Q (designed binder)
chain: B1 chain with E83Q, V107K
B35: K68V (designed binder)
chain: B1 chain with K68V, V107K
B36: K17E (designed binder)
chain: B1 chain with K17E, V107K
B37: K27I (designed binder)
chain: B1 chain with K27I, V107K
B38: Y50H (designed binder)
chain: B1 chain with Y50H, V107K
B39: K23F (designed binder)
chain: B1 chain with K23F, V107K
B40: S59M (designed binder)
chain: B1 chain with S59M, V107K
B41: E5R (designed binder)
chain: B1 chain with E5R, V107K
B42: E60D (designed binder)
chain: B1 chain with E60D, V107K
B43: K31S (designed binder)
chain: B1 chain with K31S, V107K
B44: Y50K (designed binder)
chain: B1 chain with Y50K, V107K
B45: Y70D (designed binder)
chain: B1 chain with Y70D, V107K
B46: E37V (designed binder)
chain: B1 chain with E37V, V107K
B47: E91V (designed binder)
chain: B1 chain with E91V, V107K
B48: R96A (designed binder)
chain: B1 chain with R96A, V107K
B49: E78D (designed binder)
chain: B1 chain with E78D, V107K
B50: E14R (designed binder)
chain: B1 chain with E14R, V107K
B51: L99D (designed binder)
chain: B1 chain with L99D, V107K
B52: T57I (designed binder)
chain: B1 chain with T57I, V107K
B53: R38Q (designed binder)
chain: B1 chain with R38Q, V107K
B54: A55T (designed binder)
chain: B1 chain with A55T, V107K
B55: K88M (designed binder)
chain: B1 chain with K88M, V107K

Biological target: T1, TNFR1
Experiment: yeast display SC50

Binder	apparent Kd (screen) [nM]
B1	2.05
B2	0.446
B3	0.446
B4	0.446
B5	0.49
B6	11.4
B7	7.07
B8	0.869
B9	16.7
B10	26.9
B11	0.539
B12	0.539
B13	2.48
B14	1.86
B15	0.653
B16	0.208
B17	7.07
B18	0.49
B19	0.718
B20	1.4
B21	0.0802
B22	8.56
B23	10.4
B24	0.593
B25	1.05
B26	5.84
B27	0.869
B28	1.54

Binder	apparent Kd (screen) [nM]
B29	0.49
B30	1.4
B31	1.27
B32	13.8
B33	1.54
B34	0.593
B35	1.27
B36	1.05
B37	1.05
B38	13.8
B39	0.79
B40	1.69
B41	0.446
B42	1.27
B43	0.956
B44	3.99
B45	5.84
B46	0.539
B47	7.07
B48	3
B49	1.86
B50	5.31
B51	11.4
B52	0.49
B53	1.86
B54	10.4
B55	0.446
